Article PMC10397247
Blank lines part the entries; values can stand above or below the binder they belong to.

What was measured:
[1] = molecular target: T1, P5-AA-1HGe-Y; experiment: two-hybrid library CCmax; conditions: mean of both orientations;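 note: natural log of median RNA to DNA barcode read ratio; higher means stronger binding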
T1 chain: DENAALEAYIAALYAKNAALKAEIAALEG

[2] = molecular target: T2, O7-AA; experiment: two-hybrid library CCmax; conditions: mean of both orientations;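 note: natural log of median RNA to DNA barcode read ratio; higher means stronger binding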
T2 chain: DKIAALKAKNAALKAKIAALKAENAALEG

[3] = molecular target: T3, P5-AA-1HGe-Q; experiment: two-hybrid library CCmax; conditions: mean of both orientations;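 note: natural log of median RNA to DNA barcode read ratio; higher means stronger binding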
T3 chain: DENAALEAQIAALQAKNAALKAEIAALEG

[4] = molecular target: T4, P5-AA-1HGe-W; experiment: two-hybrid library CCmax; conditions: mean of both orientations;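 note: natural log of median RNA to DNA barcode read ratio; higher means stronger binding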
T4 chain: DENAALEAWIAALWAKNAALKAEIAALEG

[5] = molecular target: T5, P5-AA-1HGe-H; experiment: two-hybrid library CCmax; conditions: mean of both orientations;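 note: natural log of median RNA to DNA barcode read ratio; higher means stronger binding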
T5 chain: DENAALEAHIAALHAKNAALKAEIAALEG

[6] = molecular target: T6, P9-AA; experiment: two-hybrid library CCmax; conditions: mean of both orientations;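 note: natural log of median RNA to DNA barcode read ratio; higher means stronger binding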
T6 chain: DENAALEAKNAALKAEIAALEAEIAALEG

[7] = molecular target: T7, O6-AA; experiment: two-hybrid library CCmax
T7 chain: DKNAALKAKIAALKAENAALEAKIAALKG

[8] = molecular target: T8, P5-AA-1HGe-T; experiment: two-hybrid library CCmax; conditions: mean of both orientations
T8 chain: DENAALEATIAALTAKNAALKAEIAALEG

[9] = molecular target: T9, P5-AA-1HGe-M; experiment: two-hybrid library CCmax; conditions: mean of both orientations
T9 chain: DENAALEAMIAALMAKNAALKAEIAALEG

[10] = molecular target: T10, P5-AA-1HGe-S; experiment: two-hybrid library CCmax; conditions: mean of both orientations
T10 chain: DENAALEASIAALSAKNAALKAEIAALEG

[11] = molecular target: T11, P5-AA-1HGe-D; experiment: two-hybrid library CCmax; conditions: mean of both orientations
T11 chain: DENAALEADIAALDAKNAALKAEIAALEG

[12] = molecular target: T12, P10-AA; experiment: two-hybrid library CCmax; conditions: mean of both orientations
T12 chain: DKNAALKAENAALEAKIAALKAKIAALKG

[13] = molecular target: T13, P5-AA-1HGe-A; experiment: two-hybrid library CCmax; conditions: mean of both orientations
T13 chain: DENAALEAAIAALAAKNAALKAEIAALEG

[14] = molecular target: T14, O8-AA; experiment: two-hybrid library CCmax; conditions: mean of both orientations
T14 chain: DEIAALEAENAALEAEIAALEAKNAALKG

[15] = molecular target: T15, P5-AA-1HGe-R; experiment: two-hybrid library CCmax; conditions: mean of both orientations
T15 chain: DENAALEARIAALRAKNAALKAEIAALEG

[16] = molecular target: T16, 4H1222-bH; experiment: two-hybrid library CCNG1
T16 chain: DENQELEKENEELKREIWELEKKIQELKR

[17] = molecular target: T17, O8-bN; experiment: two-hybrid library CCNG1
T17 chain: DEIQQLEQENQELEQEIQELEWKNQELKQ

[18] = molecular target: T18, 4H3631-bH; experiment: two-hybrid library CCNG1
T18 chain: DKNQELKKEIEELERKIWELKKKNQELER

[19] = molecular target: T19, 4H1804-bH; experiment: two-hybrid library CCNG1
T19 chain: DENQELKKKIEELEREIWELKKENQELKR

[20] = molecular target: T20, 4H1348-bH; experiment: two-hybrid library CCNG1
T20 chain: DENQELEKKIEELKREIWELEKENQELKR

[21] = molecular target: T21, 4H3817-bH; experiment: two-hybrid library CCNG1
T21 chain: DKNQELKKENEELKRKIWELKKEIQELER

[22] = molecular target: T22, 4H3638-bH; experiment: two-hybrid library CCNG1
T22 chain: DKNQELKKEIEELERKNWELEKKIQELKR

[23] = molecular target: T23, 4H619-bH; experiment: two-hybrid library CCNG1
T23 chain: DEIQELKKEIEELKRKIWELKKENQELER

[24] = molecular target: T24, 4H3974-bH; experiment: two-hybrid library CCNG1
T24 chain: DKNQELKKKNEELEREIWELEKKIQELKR

[25] = molecular target: T25, 4H3189-bH; experiment: two-hybrid library CCNG1
T25 chain: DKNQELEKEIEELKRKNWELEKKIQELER

[26] = molecular target: T26, 4H850-bH; experiment: two-hybrid library CCNG1
T26 chain: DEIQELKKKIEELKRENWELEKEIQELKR

[27] = molecular target: T27, 4H3129-bH; experiment: two-hybrid library CCNG1
T27 chain: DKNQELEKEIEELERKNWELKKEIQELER

[28] = molecular target: T28, 4H1338-bH; experiment: two-hybrid library CCNG1
T28 chain: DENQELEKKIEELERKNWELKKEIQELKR

[29] = molecular target: T29, 4H1710-bH; experiment: two-hybrid library CCNG1
T29 chain: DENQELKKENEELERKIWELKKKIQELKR

[30] = molecular target: T30, 4H1373-bH; experiment: two-hybrid library CCNG1
T30 chain: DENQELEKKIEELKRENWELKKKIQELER

[31] = molecular target: T31, P5bH1; experiment: two-hybrid library CCNG1
T31 chain: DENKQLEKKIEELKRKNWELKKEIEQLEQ

[32] = molecular target: T32, 4H1544-bH; experiment: two-hybrid library CCNG1
T32 chain: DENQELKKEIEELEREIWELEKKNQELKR

[33] = molecular target: T33, 4H1393-bH; experiment: two-hybrid library CCNG1
T33 chain: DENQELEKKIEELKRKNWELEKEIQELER

[34] = molecular target: T34, 4H1899-bH; experiment: two-hybrid library CCNG1
T34 chain: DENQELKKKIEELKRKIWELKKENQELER

[35] = molecular target: T35, 4H1449-bH; experiment: two-hybrid library CCNG1
T35 chain: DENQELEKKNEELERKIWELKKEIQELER

[36] = molecular target: T36, 4H3858-bH; experiment: two-hybrid library CCNG1
T36 chain: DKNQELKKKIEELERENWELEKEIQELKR

[37] = molecular target: T37, 4H1985-bH; experiment: two-hybrid library CCNG1
T37 chain: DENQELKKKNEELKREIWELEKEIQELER

[38] = molecular target: T38, 4H570-bH; experiment: two-hybrid library CCNG1
T38 chain: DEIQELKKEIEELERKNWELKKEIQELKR

[39] = molecular target: T39, 4H1359-bH; experiment: two-hybrid library CCNG1
T39 chain: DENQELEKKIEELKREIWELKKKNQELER

[40] = molecular target: T40, 4H906-bH; experiment: two-hybrid library CCNG1
T40 chain: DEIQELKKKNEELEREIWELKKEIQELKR

[41] = molecular target: T41, 4H3628-bH; experiment: two-hybrid library CCNG1
T41 chain: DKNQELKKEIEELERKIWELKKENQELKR

[42] = molecular target: T42, 4H1629-bH; experiment: two-hybrid library CCNG1
T42 chain: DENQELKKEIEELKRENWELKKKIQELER

[43] = molecular target: T43, 4H741-bH; experiment: two-hybrid library CCNG1
T43 chain: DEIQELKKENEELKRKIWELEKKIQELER

[44] = molecular target: T44, 4H3613-bH; experiment: two-hybrid library CCNG1
T44 chain: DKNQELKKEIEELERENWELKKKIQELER

[45] = molecular target: T45, 4H584-bH; experiment: two-hybrid library CCNG1
T45 chain: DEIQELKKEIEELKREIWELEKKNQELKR

[46] = molecular target: T46, 4H3172-bH; experiment: two-hybrid library CCNG1
T46 chain: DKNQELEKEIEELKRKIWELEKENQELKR

[47] = molecular target: T47, 4H3414-bH; experiment: two-hybrid library CCNG1
T47 chain: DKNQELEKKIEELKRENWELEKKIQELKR

[48] = molecular target: T48, P8A-bN; experiment: two-hybrid library CCNG1
T48 chain: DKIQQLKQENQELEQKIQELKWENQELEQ

interaction score [1]: 1.74
interaction score [2]: -0.751
interaction score [3]: 2.25
interaction score [4]: 1.75
interaction score [5]: 1.6
interaction score [6]: -0.00244
interaction score [7]: -0.782
interaction score [8]: 2.12
interaction score [9]: 2.06
interaction score [10]: 1.69
interaction score [11]: 1.7
interaction score [12]: -1.2
interaction score [13]: 2.21
interaction score [14]: 1.57
interaction score [15]: 1.98
Binder: DKNAALKAKIAALKAENAALEAKIAALKG [O6-AA]

interaction score [16]: 0.735
interaction score [17]: -2.96
interaction score [18]: 0.426
interaction score [19]: 0.345
interaction score [20]: -0.0221
interaction score [21]: 1.69
interaction score [22]: -0.0664
interaction score [23]: -1.4
interaction score [24]: 1.38
interaction score [25]: -1.2
interaction score [26]: 0.372
interaction score [27]: 0.793
interaction score [28]: 0.196
interaction score [29]: 2.16
interaction score [30]: -0.384
interaction score [31]: 0.361
interaction score [32]: -2.53
interaction score [33]: -0.624
interaction score [34]: 0.852
interaction score [35]: 1.19
interaction score [36]: -0.605
interaction score [37]: 1.24
interaction score [38]: 0.693
interaction score [39]: 0.083
interaction score [40]: -0.362
interaction score [41]: 0.758
interaction score [42]: -0.0755
interaction score [43]: -2.48
interaction score [44]: -1.34
interaction score [45]: 0.714
interaction score [46]: -0.665
interaction score [47]: 0.0236
interaction score [48]: 2.04
Binder: DENQELEKENEELKREIWELEKKIQELKR [4H1222-bH]
